Test results reported in the supplement of paper PMC5998384.

What was measured:
HeLa Kyoto [1] = test: thermal stability score vs G1/S (z-score of summed log2 fold changes over temperatures); higher = more thermally stable than in G1/S
HeLa Kyoto [2] = test: solubility in G1/S (NP-40 vs SDS abundance) (log2 ratio); higher = more soluble; conditions: cell cycle stage: G1/S
HeLa Kyoto [3] = test: solubility change mitosis vs G1/S (difference of NP-40 vs SDS log2 ratios) (log2 ratio difference); higher = more soluble in mitosis
HeLa Kyoto [4] = test: melting temperature (median over replicates), in situ; higher = more thermally stable
[5] = cell cycle stage: early G1 (4.5 h after nocodazole release)
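Wherever melting temperature (median over replicates), in situ is given: HeLa Kyoto cells synchronized by double thymidine or nocodazole block, proteins quantified by TMT10plex mass spectrometry, three independent biological replicates.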
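Wherever solubility change mitosis vs G1/S (difference of NP-40 vs SDS log2 ratios) is given: synchronized HeLa Kyoto cells (double thymidine block for G1/S, nocodazole release for mitosis), protein amounts in NP-40 versus SDS lysates quantified by mass spectrometry, three biological replicates.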
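Wherever solubility in G1/S (NP-40 vs SDS abundance) is given: HeLa Kyoto cells arrested at G1/S by double thymidine block, proteins quantified by TMT10plex mass spectrometry in mild NP-40 versus SDS extracts, three biological replicates.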
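Wherever thermal stability score vs G1/S (z-score of summed log2 fold changes over temperatures) is given: synchronized HeLa Kyoto cells, proteins quantified by TMT10plex mass spectrometry, three biological replicates, mitosis taken 0.5 h after nocodazole release, G1/S directly after double thymidine block.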

Substance | thermal stability score (HeLa Kyoto [1]; [5]) | thermal stability score (HeLa Kyoto [1]; cell cycle stage: mitosis) | solubility in G1/S (log2) (HeLa Kyoto [2]) | solubility change mitosis (log2) (HeLa Kyoto [3]) | melting temperature (HeLa Kyoto [4]; cell cycle stage: G1/S) [°C] | melting temperature (HeLa Kyoto [4]; cell cycle stage: mitosis) [°C]
MGNRGMEELIPLVNKLQDAFSSIGQSCHLDLPQIAVVGGQSAGKSSVLENFVGRDFLPRGSGIVTRRPLILQLIFSKTEHAEFLHCKSKKFTDFDEVRQEIEAETDRVTGTNKGISPVPINLRVYSPHVLNLTLIDLPGITKVPVGDQPPDIEYQIKDMILQFISRESSLILAVTPANMDLANSDALKLAKEVDPQGLRTIGVITKLDLMDEGTDARDVLENKLLPLRRGYIGVVNRSQKDIEGKKDIRAALAAERKFFLSHPAYRHMADRMGTPHLQKTLNQQLTNHIRESLPALRSKLQSQLLSLEKEVEEYKNFRPDDPTRKTKALLQMVQQFGVDFEKRIEGSGDQVDTLELSGGARINRIFHERFPFELVKMEFDEKDLRREISYAIKNIHGVRTGLFTPDLAFEAIVKKQVVKLKEPCLKCVDLVIQELINTVRQCTSKLSSYPRLREETERIVTTYIREREGRTKDQILLLIDIEQSYINTNHEDFIGFANAQQRSTQLNKKRAIPNQGEILVIRRGWLTINNISLMKGGSKEYWFVLTAESLSWYKDEEEKEKKYMLPLDNLKIRDVEKGFMSNKHVFAIFNTEQRNVYKDLRQIELACDSQEDVDSWKASFLRAGVYPEKDQAENEDGAQENTFSMDPQLERQVETIRNLVDSYVAIINKSIRDLMPKTIMHLMINNTKAFIHHELLAYLYSSADQSSLMEESADQAQRRDDMLRMYHALKEALNIIGDISTSTVSTPVPPPVDDTWLQSASSHSPTPQRRPVSSIHPPGRPPAVRGPTPGPPLIPVPVGAAASFSAPPIPSRPGPQSVFANSDLFPAPPQIPSRPVRIPPGIPPGVPSRRPPAAPSRPTIIRPAEPSLLD [DNM2] | 1.01 | 1.14 | 0.212 | -0.144 | 50.5 | 50
MRPVRLMKVFVTRRIPAEGRVALARAADCEVEQWDSDEPIPAKELERGVAGAHGLLCLLSDHVDKRILDAAGANLKVISTMSVGIDHLALDEIKKRGIRVGYTPDVLTDTTAELAVSLLLTTCRRLPEAIEEVKNGGWTSWKPLWLCGYGLTQSTVGIIGLGRIGQAIARRLKPFGVQRFLYTGRQPRPEEAAEFQAEFVSTPELAAQSDFIVVACSLTPATEGLCNKDFFQKMKETAVFINISRGDVVNQDDLYQALASGKIAAAGLDVTSPEPLPTNHPLLTLKNCVILPHIGSATHRTRNTMSLLAANNLLAGLRGEPMPSELKL [GRHPR] | 0.108 | 0.371 | 0.0329 | -0.204 | 54.3 | 55
MVIRVYIASSSGSTAIKKKQQDVLGFLEANKIGFEEKDIAANEENRKWMRENVPENSRPATGYPLPPQIFNESQYRGDYDAFFEARENNAVYAFLGLTAPPGSKEAEVQAKQQA [SH3BGRL] | -0.605 | -2.76 | 0.375 | -0.0943 | 53.2 | 53
MAALGEPVRLERDICRAIELLEKLQRSGEVPPQKLQALQRVLQSEFCNAVREVYEHVYETVDISSSPEVRANATAKATVAAFAASEGHSHPRVVELPKTEEGLGFNIMGGKEQNSPIYISRIIPGGIADRHGGLKRGDQLLSVNGVSVEGEHHEKAVELLKAAQGKVKLVVRYTPKVLEEMESRFEKMRSAKRRQQT [LIN7C] | -0.659 | -0.713 | 0.382 | 0.202 | 50.1 | 51.5
MDADDSRAPKGSLRKFLEHLSGAGKAIGVLTSGGDAQGMNAAVRAVVRMGIYVGAKVYFIYEGYQGMVDGGSNIAEADWESVSSILQVGGTIIGSARCQAFRTREGRLKAACNLLQRGITNLCVIGGDGSLTGANLFRKEWSGLLEELARNGQIDKEAVQKYAYLNVVGMVGSIDNDFCGTDMTIGTDSALHRIIEVVDAIMTTAQSHQRTFVLEVMGRHCGYLALVSALACGADWVFLPESPPEEGWEEQMCVKLSENRARKKRLNIIIVAEGAIDTQNKPITSEKIKELVVTQLGYDTRVTILGHVQRGGTPSAFDRILASRMGVEAVIALLEATPDTPACVVSLNGNHAVRLPLMECVQMTQDVQKAMDERRFQDAVRLRGRSFAGNLNTYKRLAIKLPDDQIPKTNCNVAVINVGAPAAGMNAAVRSAVRVGIADGHRMLAIYDGFDGFAKGQIKEIGWTDVGGWTGQGGSILGTKRVLPGKYLEEIATQMRTHSINALLIIGGFEAYLGLLELSAAREKHEEFCVPMVMVPATVSNNVPGSDFSIGADTALNTITDTCDRIKQSASGTKRRVFIIETMGGYCGYLANMGGLAAGADAAYIFEEPFDIRDLQSNVEHLTEKMKTTIQRGLVLRNESCSENYTTDFIYQLYSEEGKGVFDCRKNVLGHMQQGGAPSPFDRNFGTKISARAMEWITAKLKEARGRGKKFTTDDSICVLGISKRNVIFQPVAELKKQTDFEHRIPKEQWWLKLRPLMKILAKYKASYDVSDSGQLEHVQPWSV [PFKP] | -0.744 | -1.49 | -0.0125 | -0.138 | 57.4 | 58.3
MSSNCTSTTAVAVAPLSASKTKTKKKHFVCQKVKLFRASEPILSVLMWGVNHTINELSNVPVPVMLMPDDFKAYSKIKVDNHLFNKENLPSRFKFKEYCPMVFRNLRERFGIDDQDYQNSVTRSAPINSDSQGRCGTRFLTTYDRRFVIKTVSSEDVAEMHNILKKYHQFIVECHGNTLLPQFLGMYRLTVDGVETYMVVTRNVFSHRLTVHRKYDLKGSTVAREASDKEKAKDLPTFKDNDFLNEGQKLHVGEESKKNFLEKLKRDVEFLAQLKIMDYSLLVGIHDVDRAEQEEMEVEERAEDEECENDGVGGNLLCSYGTPPDSPGNLLSFPRFFGPGEFDPSVDVYAMKSHESSPKKEVYFMAIIDILTPYDTKKKAAHAAKTVKHGAGAEISTVNPEQYSKRFNEFMSNILT [PIP4K2B] | 0.758 | -0.395 | 0.335 | -0.163 | 50.1 | 49
MVVTRSARAKASIQAASAESSGQKSFAANGIQAHPESSTGSDARTTAESQTTGKQSLIPRTPKARKRKSRTTGSLPKGTEPSTDGETSEAESNYSVSEHHDTILRVTRRRQILIACSPVSSVRKKPKVTPTKESYTEEIVSEAESHVSGISRIVLPTEKTTGARRSKAKSLTDPSQESHTEAISDAETSSSDISFSGIATRRTRSMQRKLKAQTEKKDSKIVPGNEKQIVGTPVNSEDSDTRQTSHLQARSLSEINKPNFYNNDFDDDFSHRSSENILTVHEQANVESLKETKQNCKDLDEDANGITDEGKEINEKSSQLKNLSELQDTSLQQLVSQRHSTPQNKNAVSVHSNLNSEAVMKSLTQTFATVEVGRWNNNKKSPIKASDLTKFGDCGGSDDEEESTVISVSEDMNSEGNVDFECDTKLYTSAPNTSQGKDNSVLLVLSSDESQQSENSENEEDTLCFVENSGQRESLSGDTGSLSCDNALFVIDTTPGMSADKNFYLEEEDKASEVAIEEEKEEEEDEKSEEDSSDHDENEDEFSDEEDFLNSTKAKLLKLTSSSIDPGLSIKQLGGLYINFNADKLQSNKRTLTQIKEKKKNELLQKAVITPDFEKNHCVPPYSESKYQLQKKRRKERQKTAGDGWFGMKAPEMTNELKNDLKALKMRASMDPKRFYKKNDRDGFPKYFQIGTIVDNPADFYHSRIPKKQRKRTIVEELLADSEFRRYNRRKYSEIMAEKAANAAGKKFRKKKKFRN [DNTTIP2] | 2.7 | 4.77 | -2.06 | 1.04 | 48.9 | 52.4
ARID1B | 0.573 | 1.11 | -0.143 | 0.0332 | 48.8 | 50.2
MYFPSWLSQLYRGLSRPIRRTTQPIWGSLYRSLLQSSQRRIPEFSSFVVRTNTCGELRSSHLGQEVTLCGWIQYRRQNTFLVLRDFDGLVQVIIPQDESAASVKKILCEAPVESVVQVSGTVISRPAGQENPKMPTGEIEIKVKTAELLNACKKLPFEIKNFVKKTEALRLQYRYLDLRSFQMQYNLRLRSQMVMKMREYLCNLHGFVDIETPTLFKRTPGGAKEFLVPSREPGKFYSLPQSPQQFKQLLMVGGLDRYFQVARCYRDEGSRPDRQPEFTQIDIEMSFVDQTGIQSLIEGLLQYSWPNDKDPVVVPFPTMTFAEVLATYGTDKPDTRFGMKIIDISDVFRNTEIGFLQDALSKPHGTVKAICIPEGAKYLKRKDIESIRNFAADHFNQEILPVFLNANRNWNSPVANFIMESQRLELIRLMETQEEDVVLLTAGEHNKACSLLGKLRLECADLLETRGVVLRDPTLFSFLWVVDFPLFLPKEENPRELESAHHPFTAPHPSDIHLLYTEPKKARSQHYDLVLNGNEIGGGSIRIHNAELQRYILATLLKEDVKMLSHLLQALDYGAPPHGGIALGLDRLICLVTGSPSIRDVIAFPKSFRGHDLMSNTPDSVPPEELKPYHIRVSKPTDSKAERAH [DARS2] | -0.868 | 0.237 | 0.144 | -0.114 | 55.5 | 55.9
MDPGDDWLVESLRLYQDFYAFDLSGATRVLEWIDDKGVFVAGYESLKKNEILHLKLPLRLSVKENKGLFPERDFKVRHGGFSDRSIFDLKHVPHTRLLVTSGLPGCYLQVWQVAEDSDVIKAVSTIAVHEKEESLWPRVAVFSTLAPGVLHGARLRSLQVVDLESRKTTYTSDVSDSEELSSLQVLDADTFAFCCASGRLGLVDTRQKWAPLENRSPGPGSGGERWCAEVGSWGQGPGPSIASLGSDGRLCLLDPRDLCHPVSSVQCPVSVPSPDPELLRVTWAPGLKNCLAISGFDGTVQVYDATSWDGTRSQDGTRSQVEPLFTHRGHIFLDGNGMDPAPLVTTHTWHPCRPRTLLSATNDASLHVWDWVDLCAPR [WDR73] | 0.072 | 0.551 | -0.0335 | -0.0847 | 54.8 | 54
MADLSLADALTEPSPDIEGEIKRDFIATLEAEAFDDVVGETVGKTDYIPLLDVDEKTGNSESKKKPCSETSQIEDTPSSKPTLLANGGHGVEGSDTTGSPTEFLEEKMAYQEYPNSQNWPEDTNFCFQPEQVVDPIQTDPFKMYHDDDLADLVFPSSATADTSIFAGQNDPLKDSYGMSPCNTAVVPQGWSVEALNSPHSESFVSPEAVAEPPQPTAVPLELAKEIEMASEERPPAQALEIMMGLKTTDMAPSKETEMALAKDMALATKTEVALAKDMESPTKLDVTLAKDMQPSMESDMALVKDMELPTEKEVALVKDVRWPTETDVSSAKNVVLPTETEVAPAKDVTLLKETERASPIKMDLAPSKDMGPPKENKKETERASPIKMDLAPSKDMGPPKENKIVPAKDLVLLSEIEVAQANDIISSTEISSAEKVALSSETEVALARDMTLPPETNVILTKDKALPLEAEVAPVKDMAQLPETEIAPAKDVAPSTVKEVGLLKDMSPLSETEMALGKDVTPPPETEVVLIKNVCLPPEMEVALTEDQVPALKTEAPLAKDGVLTLANNVTPAKDVPPLSETEATPVPIKDMEIAQTQKGISEDSHLESLQDVGQSAAPTFMISPETVTGTGKKCSLPAEEDSVLEKLGERKPCNSQPSELSSETSGIARPEEGRPVVSGTGNDITTPPNKELPPSPEKKTKPLATTQPAKTSTSKAKTQPTSLPKQPAPTTIGGLNKKPMSLASGLVPAAPPKRPAVASARPSILPSKDVKPKPIADAKAPEKRASPSKPASAPASRSGSKSTQTVAKTTTAAAVASTGPSSRSPSTLLPKKPTAIKTEGKPAEVKKMTAKSVPADLSRPKSTSTSSMKKTTTLSGTAPAAGVVPSRVKATPMPSRPSTTPFIDKKPTSAKPSSTTPRLSRLATNTSAPDLKNVRSKVGSTENIKHQPGGGRAKVEKKTEAAATTRKPESNAVTKTAGPIASAQKQPAGKVQIVSKKVSYSHIQSKCGSKDNIKHVPGGGNVQIQNKKVDISKVSSKCGSKANIKHKPGGGDVKIESQKLNFKEKAQAKVGSLDNVGHLPAGGAVKTEGGGSEAPLCPGPPAGEEPAISEAAPEAGAPTSASGLNGHPTLSGGGDQREAQTLDSQIQETSI [MAP4] | -3.19 | -3.41 | 0.265 | -0.0455 | 59 | –
MLRSCAARLRTLGALCLPPVGRRLPGSEPRPELRSFSSEEVILKDCSVPNPSWNKDLRLLFDQFMKKCEDGSWKRLPSYKRTPTEWIQDFKTHFLDPKLMKEEQMSQAQLFTRSFDDGLGFEYVMFYNDIEKRMVCLFQGGPYLEGPPGFIHGGAIATMIDATVGMCAMMAGGIVMTANLNINYKRPIPLCSVVMINSQLDKVEGRKFFVSCNVQSVDEKTLYSEATSLFIKLNPAKSLT [THEM4] | 0.216 | -1.16 | 0.0285 | -0.0775 | 54.7 | 56.2
